Residue numbers refer to the chain shown, from its start.

B1: Fab R2C8 (Fab, V domains shown)
VH: EVQLVESGGGLVQPGGSLRLSCAASGFNISSSSIHWVRQAPGKGLEWVASIYPYYGSTSYADSVKGRFTISADTSKNTAYLQMNSLRAEDTAVYYCARPGRHLQTTFKGYQFKYSRYIYAMDYWGQGTLVTVSS
VL: DIQMTQSPSSLSASVGDRVTITCRASQSVSSAVAWYQQKPGKAPKLLIYSASSLYSGVPSRFSGSRSGTDFTLTISSLQPEDFATYYCQQWGHHGYLITFGQGTKVEIKR
B2: Fab R3C13 (Fab, V domains shown)
VH: EVQLVESGGGLVQPGGSLRLSCAASGFNIYYSYMHWVRQAPGKGLEWVASISSYSGSTSYADSVKGRFTISADTSKNTAYLQMNSLRAEDTAVYYCARWLRVSLKSGVYKVLARAVELDEYVMDYWGQGTLVTVSS
VL: B1 VL with W91S, H93Y, H94Y, G95A, Y96W, L97P
B3: Fab R2C11 (Fab, V domains shown)
VH: EVQLVESGGGLVQPGGSLRLSCAASGFNLYYSSIHWVRQAPGKGLEWVAYIYPSYSYTYYADSVKGRFTISADTSKNTAYLQMNSLRAEDTAVYYCARRYGSDVFCVGCFFGVRLSYVMDYWGQGTLVTVSS
VL: B1 VL with W91Y, G92V, H93S, H94S, Y96S
B4: Fab R2C4 (Fab, V domains shown)
VH: EVQLVESGGGLVQPGGSLRLSCAASGFNLSYYYMHWVRQAPGKGLEWVAYISSYSGYTYYADSVKGRFTISADTSKNTAYLQMNSLRAEDTAVYYCARGWRVYADRGHVRGYFRVWYGMDYWGQGTLVTVSS
VL: DIQMTQSPSSLSASVGDRVTITCRASQSVSSAVAWYQQKPGKAPKLLIYSASSLYSGVPSRFSGSRSGTDFTLTISSLQPEDFATYYCQQGAGLITFGQGTKVEIKR
B5: Fab R2C16 (Fab, V domains shown)
VH: EVQLVESGGGLVQPGGSLRLSCAASGFNIYSYSMHWVRQAPGKGLEWVASISSYYGYTYYADSVKGRFTISADTSKNTAYLQMNSLRAEDTAVYYCARFKNADFAAGGQWSKMLIARMYAMDYWGQGTLVTVSS
VL: B4 VL with G91Y, A92Y, G93S
B6: Fab R3C15 (Fab, V domains shown)
VH: EVQLVESGGGLVQPGGSLRLSCAASGFNISYSYMHWVRQAPGKGLEWVASISPYSGYTYYADSVKGRFTISADTSKNTAYLQMNSLRAEDTAVYYCARGVRGNKLRLLSSRSGRMESHYVMDYWGQGTLVTVSS
VL: B4 VL with G91A, A92G, G93S, I95F
B7: Fab R2C9 (Fab, V domains shown)
VH: EVQLVESGGGLVQPGGSLRLSCAASGFNIYSYSMHWVRQAPGKGLEWVAYIYPYSGYTYYADSVKGRFTISADTSKNTAYLQMNSLRAEDTAVYYCARVLNIFMDVGAARFPGLVRYGMDYWGQGTLVTVSS
VL: DIQMTQSPSSLSASVGDRVTITCRAGQDVSSAVAWYQQKPGKAPKLLIYSASTLHSGVPSRFSGSRSGTDFTLTISSLQPEDFATYYCQQSGPYSLFTFGQGTKVEIKR
B8: Fab R2C22 (Fab, V domains shown)
VH: EVQLVESGGGLVQPGGSLRLSCAASGFNIYSSYMHWVRQAPGKGLEWVASIYSSYGSTYYADSVKGRFTISADTSKNTAYLQMNSLRAEDTAVYYCARHSRDGWQHWFGNWAGLHSYGMDYWGQGTLVTVSS
VL: DIQMTQSPSSLSASVGDRVTITCRASQSVSSAVAWYQQKPGKAPKLLIYSASSLYSGVPSRFSGSRSGTDFTLTISSLQPEDFATYYCQQYYHYGYYLITFGQGTKVEIKR
B9: Fab R3C8 (Fab, V domains shown)
VH: EVQLVESGGGLVQPGGSLRLSCAASGFNFSSSSIHWVRQAPGKGLEWVASIYPSYSYTYYADSVKGRFTISADTSKNTAYLQMNSLRAEDTAVYYCARHCLLRSRRCEMSTKTRELNVYRYAMDYWGQGTLVTVSS
VL: B8 VL with Y91W, Y92P, H93V, Y94G, G95S, Y96S, L98P
B10: Fab R2C6 (Fab, V domains shown)
VH: EVQLVESGGGLVQPGGSLRLSCAASGFNIYYSSMHWVRQAPGKGLEWVAYISPYYGYTSYADSVKGRFTISADTSKNTAYLQMNSLRAEDTAVYYCARKDLLKTNRLTTRYKKSVSVGYGMDYWGQGTLVTVSS
VL: DIQMTQSPSSLSASVGDRVTITCRASQSVSSAVAWYQQKPGKAPKLLIYSASSLYSGVPSRFSGSRSGTDFTLTISSLQPEDFATYYCQQYVYPPFTFGQGTKVEIKR
B11: Fab R2C12 (Fab, V domains shown)
VH: EVQLVESGGGLVQPGGSLRLSCAASGFNISSSYMHWVRQAPGKGLEWVASIYSYSSYTYYADSVKGRFTISADTSKNTAYLQMNSLRAEDTAVYYCARSDSWVQGRDFCYYSAWVGYGMDYWGQGTLVTVSS
VL: B10 VL with Y91G, V92Y, P94A, P95L
B12: Fab R3C10 (Fab, V domains shown)
VH: EVQLVESGGGLVQPGGSLRLSCAASGFNIYYSSMHWVRQAPGKGLEWVASISPYYGYTYYADSVKGRFTISADTSKNTAYLQMNSLRAEDTAVYYCARGSLRRDFNLVVRSSWDIRSNYVMDYWGQGTLVTVSS
VL: B10 VL with Y91S, V92W, Y93P, P94Y, F96I
B13: Fab 32E10 (Fab, V domains shown)
VH: EVQLVESGGGLVQPGGSLRLSCAASGFNIYSYSMHWVRQAPGKGLEWVAYIYPYSGYTYYADSVKGRFTISADTSKNTAYLQMNSLRAEDTAVYYCARLDRDRYIHVGRAGNTYSNYYYVMDYWGQGTLVTVSS
VL: B1 VL with W91P, G92W, H93G, H94A, G95A, Y96S
notes: also called R2C19; not shown: His tag at the C-terminus of the heavy chain
B14: Fab 32C11 (Fab, V domains shown)
VH: EVQLVESGGGLVQPGGSLRLSCAASGFNLYYSSIHWVRQAPGKGLEWVASISSYSSYTYYADSVKGRFTISADTSKNTAYLQMNSLRAEDTAVYYCAREIHMLSRQARYLRDGRRPRGSMYVMDYWGQGTLVTVSS
VL: B10 VL with V92G, Y93A, P94G, P95L, F96I
notes: also called R3C7; not shown: His tag at the C-terminus of the heavy chain
B15: Fab 33F5 (Fab, V domains shown)
VH: EVQLVESGGGLVQPGGSLRLSCAASGFNLYYSYMHWVRQAPGKGLEWVAYISPSSSSTYYADSVKGRFTISADTSKNTAYLQMNSLRAEDTAVYYCARNFRVESAGRPGKTVLRKDGKYAMDYWGQGTLVTVSS
VL: B10 VL with Y91S, V92S, Y93V, P94G, P95L
notes: also called R2C20; not shown: His tag at the C-terminus of the heavy chain
B16: Fab 3B2 (Fab, V domains shown)
VH: EVQLVESGGGLVQPGGSLRLSCAASGFNFSSSSIHWVRQAPGKGLEWVASIYSSYSSTYYADSVKGRFTISADTSKNTAYLQMNSLRAEDTAVYYCARSTAATTLSRMSRSYWTIQLPYGMDYWGQGTLVTVSS
VL: B10 VL with Y91S, V92S, P94S, P95L, F96I
notes: also called R2C1; not shown: His tag at the C-terminus of the heavy chain
B17: Fab 2H9 (Fab, V domains shown)
VH: EVQLVESGGGLVQPGGSLRLSCAASGFNIYYSSMHWVRQAPGKGLEWVASIYPYSGYTYYADSVKGRFTISADTSKNTAYLQMNSLRAEDTAVYYCARGTSFQVRCVLYRLLSPGRYVMDYWGQGTLVTVSS
VL: B7 VL with G26S, D28S, T53S, H55Y, P93Y, Y94S, S95Y, L96P
notes: not shown: His tag at the C-terminus of the heavy chain
B18: Fab 2E4 (Fab, V domains shown)
VH: EVQLVESGGGLVQPGGSLRLSCAASGFNLSYSYIHWVRQAPGKGLEWVAYISSSSGYTYYADSVKGRFTISADTSKNTAYLQMNSLRAEDTAVYYCARSARLRLRGNHDRRRSKSVYYRPYVMDYWGQGTLVTVSS
VL: B7 VL with G26S, D28S, T53S, H55Y, G92S, Y94S, S95F, L96P, F97I
notes: as for B17

In the first assay the target is T1, catalytic domain of MMP-14 (cdMMP-14) (human, UniProt P50281 114-287, limits assumed, biotinylated (Sulfo-NHS-LC-Biotin) where immobilised via streptavidin). The experiment in a line: cell-based or functional assay.
Consider B1, for which the “Inhibition potency (FRET IC50)” value amounted to 1200 nM.
Same read-out and setting: the same measure for B2: 2000 nM; for B3: 600 nM.
Same read-out and setting: next, B4: 1500 nM; B5: 5500 nM; B6: 170 nM.
Same read-out and setting: next, B7: 80 nM.
For B8, the “Inhibition potency (FRET IC50)” value is 75 nM.
With B9, the “Inhibition potency (FRET IC50)” value was determined as 5400 nM.
The same measure, in the same setting: next, B10: 2400 nM; B11: 150 nM; B12: 1000 nM.

For the next assay, the target named is T1, catalytic domain of MMP-14 (cdMMP-14). Put plainly: ELISA, Fab titrated on immobilised biotin-cdMMP-14, anti-Fab-HRP. For orientation: An ELISA detects its analyte on a solid surface through an enzyme-linked reagent.
As for B1, the EC50 was determined as 1200 nM.
The same measure, in the same setting: next, B2: 2000 nM; B3: 750 nM; B13: 9.7 nM.
B4 displayed a half-maximal effective concentration (EC50) of 10000 nM.
Regarding B5, the midpoint of the response, the EC50, lay at 1800 nM.
In turn, B6 gave a concentration giving a half-maximal response (EC50) of 57.5 nM.
B7: the EC50 amounted to 657 nM.
Consider B8, for which the response was half-maximal at 540 nM (EC50).
The same measure, in the same setting: next, B9: 1300 nM; B10: 2400 nM.
Still for that read-out and setting: the same measure for B11: 150 nM.
Same read-out and setting: next, B14: 29 nM; B12: 970 nM.
B15 showed an EC50 of 1600 nM.
For the molecule B16, the midpoint of the response, the EC50, lay at 590 nM.

A further assay shares this target. The experiment in a line: ELISA, Fab titrated on immobilised MMP-14 catalytic domain, anti-Fab-HRP.
Method: Bound Fabs were detected using the anti-Fab-HRP conjugate. The half-maximal effective concentration (EC₅₀) was calculated from a four-parametric logistic curve-fitting analysis.
B13 gave an EC50 of 9.7 nM.
The molecule B17 came in with an EC50 of 120 nM.
Still for that read-out and setting: the same measure for B18: 840 nM; for B14: 29 nM; for B15: 1600 nM.
The same measure, in the same setting: next, B16: 590 nM.

The EC50 is the concentration giving half of the maximal effect. High values mean lower potency in that assay, low ones higher potency in that assay.

These data come from patent US20190185581A1 (University of California, published 2019).
